What was measured:
[1] = target: T1, bovine pancreatic trypsin (Bos taurus, UniProt P00760); test: Isothermal titration calorimetry (ITC) of binding to bovine pancreatic trypsin; settings: for Binding to trypsin by ITC (in words): all experimental conditions, FIGS. 6 and 7; for Stoichiometry / Ka (association constant) / ΔH / ΔS: ITC
T1 sequence (P00760 24-246): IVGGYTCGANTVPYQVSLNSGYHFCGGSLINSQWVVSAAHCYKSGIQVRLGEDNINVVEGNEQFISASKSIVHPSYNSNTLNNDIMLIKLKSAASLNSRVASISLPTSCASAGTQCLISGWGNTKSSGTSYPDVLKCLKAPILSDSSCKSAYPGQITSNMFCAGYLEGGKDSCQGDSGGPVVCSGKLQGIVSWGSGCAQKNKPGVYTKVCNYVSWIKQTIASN
Experimental: Isothermal titration calorimetry (ITC) was performed with a VP-ITC instrument from MicroCal, inc. Titrations were carried out by injecting 5 μL of an inhibitor solution (at concentration ranges from 0.5 mM to 2.0 mM) into the 1.4 mL stirred reaction cell. APP and APP derivatives ranged in concentration from 50 to 80 μM in the cell. […] Titrations were conducted between 20° C. and 40° C. Typical experimental conditions for the titrations were a 10 second injection period followed by a 240 second delay between injections for a total of 40 injections. Blank titrations of inhibitor into buffer were performed in order to correct for heats of dilution and mixing.
The independent set of multiple binding sites is the most common model for binding experiment evaluations. The analytical solution for the total heat is determined by (Freire et al., 1990): [formula]
where Q is the total heat, V is the cell volume, ΔH is the enthalpy, M is the macromolecule concentration (the binding partner in the cell), n is the binding stoichiometry, L is the ligand concentration (the binding partner in the syringe), and K is the association constant. Data were fit to this model using Origin version 5 (MicroCal, Inc.).
The association constant is related to the van't Hoff enthalpy according to the following relationship: [formula]
The free energy of binding is related to the binding enthalpy by:
or with the incorporation of heat capacity data according to the Gibbs-Helmholtz equation: [formula]
where ΔG is the Gibbs free energy of binding, T0 is the reference temperature, and ΔCp is the heat capacity. The value of ΔCp is calculated from determining the calorimetric enthalpy at two different temperatures: [formula]
By measuring the apparent enthalpy of binding in two different buffers of known enthalpy of ionization, it is possible to measure the net number of protons transferred during the binding events:
where ΔHcor is the actual heat of binding at the pH measured. The sign indicates the direction of proton transfer.

[2] = Chemical denaturation: unfolding in urea by intrinsic tryptophan fluorescence; format: physicochemical; settings: for m1/2 value of unfolding: 20 μM protein; for m1/2 value of unfolding / Native free energy (ΔG in absence of denaturant): room temperature; for Native free energy (ΔG in absence of denaturant): extrapolated to zero urea
Experimental: Stability measurements of the protein were performed by measuring protein unfolding in the presence of urea via intrinsic tryptophan fluorescence (Lakowicz, 1983) in a Shimadzu RF5301 fluorometer. The excitation and emission wavelengths were 295 nm and 340 nm respectively. Both excitation and emission monochrometer slits were set at 1.5 nm. Protein (20 μM) was mixed with increasing amounts of urea (in the concentration range of zero to 6.8 M), and the samples were incubated at room temperature for ten hours to ensure that unfolding equilibrium had been achieved. Relative fluorescence was converted into free energy values according to the relation (Pace et al., 1989): [formula]
where yf and yu are the relative fluorescence values for fully folded and fully unfolded DST respectively, yi is the relative fluorescence of the unfolding intermediates, T is the absolute temperature, and R is the gas constant. Linear regression and extrapolation of the relationship ΔG versus [urea] was employed to determine the free energy value in the absence of denaturant (ΔGH2O). Similarly, the fraction unfolded protein (Fu) was calculated from the fluorescence data according to the relation (Pace et al., 1989): [formula]

[3] = target: T1, bovine pancreatic trypsin; test: Surface plasmon resonance (BiaCore-X), trypsin flowed over immobilized peptide; format: binding; settings: peptide coupled to CM-5 chip by thiol, trypsin 1 to 100 nM in PBS, FIG. 12
Experimental: The BiaCore, Inc. BiaCore-X surface plasmon resonance (SPR) device was utilized to measure the interaction between bovine pancreatic trypsin and SAP-1 or SAP-2. For these experiments a carboxymethyl dextran sensor chip (CM-5) was activated with 50 mM N-hydroxysuccinimide, 0.2 M N-ethyl-N′-(dimethylaminopropyl)-carbodiimide at a flow rate of 10 μL per minute for ten minutes. The thiol coupling agent PDEA (2-(2-pyridinyldithio)ethaneamine hydrochloride) at a concentration of 80 mM was passed over the activated surface at a flow rate of 10 μL per minute for five minutes. SAP-1 or SAP-2 at a concentration of 50 ng/μL was coupled to the activated surface at a flow rate of 10 μL per minute for ten minutes. The final surface was inactivated by flowing 50 mM 1-cysteine, 1 M NaCl at a rate of 10 μL per minute for five minutes over the sensor surface. Buffer was switched to phosphate buffered saline (PBS) and bovine pancreatic trypsin was flowed over the sensor surface at a rate of 20 μL per minute, and at concentrations that ranged from 1 to 100 nM.
For this reaction of the type, A+B⇄AB, where A is the free flowing ligand and B is the immobilized ligand, the change in the SPR signal (R) is proportional to formation (for the association phase) or to the dissociation (for the dissociation phase) of the complex AB.
for the association phase. Rmax is the measured response if all of the binding sites in the bound species were occupied, c is the ligand concentration, and Rb is the shift in the baseline signal upon ligand injection. The dissociation phase is evaluated by:
where R0 is the SPR signal at the start of dissociation. A FFT routine separately smoothed the association and dissociation portions of the binding isotherm. Final kinetic analysis (O'Shannessy et al., 1993) was performed using Origin from Microcal, Inc.

Sequence: CPSQPTYPGDPGPVEDLIRFYDNLQQWLNCVTAAC [SAP]
- Binding to trypsin by ITC (in words) [1]: no detectable binding
- Binding to trypsin by ITC (in words), FIG. 6 titration ([1]; peptide 2 mM, trypsin 20 μM, 20 mM cacodylate pH 7.0, 20 mM NaCl, 30° C.): No binding is evident
- m1/2 value of unfolding [2]: 2.5 M urea
- Dimerization seen in the unfolding curve (in words) ([2]; FIG. 9): no dimerization phenomenon
- Native free energy (ΔG in absence of denaturant) [2]: -3.1 kcal/mol

Sequence: CPSQPTYPGDPPYRIRFGPVEDLIRFYDNLQQWLN CVTAAC (CPSQPTYPGDPPYRIRFGPVEDLIRFYDNLQQWLNCVTAAC; A peptide-based reagent that combines the SEQ ID NO15 interactive domain with the SEQ ID NO11 peptide backbone.) [SAP-1]
- Stoichiometry ([1]; 293 K (20° C.), 20 mM cacodylate pH 7.0, 20 mM NaCl, FIG. 7): 0.975 +/− 0.02
- Ka (association constant) ([1]; 293 K, FIG. 7): 1.65e+06 ± 45000 M⁻¹
- ΔH ([1]; 293 K, FIG. 7): -26.1 ± 1.45 kcal/mol
- ΔS ([1]; 293 K, FIG. 7): −11.6 +/− 2.2 cal mol^−1 K^−1
- Ka (association constant) ([1]; 303 K): 2.4e+06 ± 37000 M⁻¹
- ΔH ([1]; 303 K): -15.4 ± 2.05 kcal/mol
- ΔS ([1]; 303 K): −21.1 +/− 1.8 cal mol^−1 K^−1
- Stoichiometry ([1]; higher temperature, 303 K): 0.99 +/− 0.03
- Binding to trypsin by ITC (in words) [1]: remarkable binding specificity for trypsin
- ΔCp (heat capacity of binding) ([1]; from calorimetric enthalpy at 293 K and 303 K): −0.51 kcal/mol K
- Kinetic rate constant ka (association) [3]: 1.3×10^5
- Kinetic rate constant kd (dissociation) [3]: 1.7×10^−2
- Stabilization of the native state relative to SAP [2]: 2.0 kcal/mol
- m1/2 value of unfolding [2]: 4.0 M urea
- Native free energy (ΔG in absence of denaturant) [2]: -5.1 kcal/mol

Sequence: CPSQPTYPGDPYKLKY GPVEDLIRFYDNLQQWLNCVTAAC (CPSQPTYPGDPYKLKYGPVEDLIRFYDNLQQWLNCVTAAC; A peptide-based reagent that combines the SEQ ID NO18 interactive domain with the SEQ ID NO11 peptide backbone.) [SAP-2, SAP backbone with library program-selected YKLKY insert]
- Stoichiometry ([1]; 25° C., 20 mM cacodylate pH 7.0, FIG. 8): 0.995 +/− 0.06
- Ka (association constant) ([1]; 25° C., FIG. 8): 640000 ± 5300 M⁻¹
- ΔH ([1]; 25° C., FIG. 8): -31.2 ± 2.30 kcal/mol
- ΔS ([1]; 25° C., FIG. 8): −16.2 +/− 1.22 cal mol^−1 K^−1
- Binding affinity compared with the peptide having SEQ ID NO:21 (in words) ([1]; bovine pancreatic trypsin): slightly lower binding affinity
- Kinetic rate constant ka (association) [3]: 8.2×10^4
- Kinetic rate constant kd (dissociation) [3]: 6.9×10^−2
- Stabilization of the native state relative to SAP [2]: 2.1 kcal/mol
- Stabilization of the native state relative to SAP-1 [2]: 0.1 kcal/mol
- m1/2 value of unfolding [2]: 4.05 M urea
